Laboratory results as given in the Immune Epitope Database (IEDB).
One block for each sequence: values may come before it.

Key:
HLA-A*68:02 [1] = assay: IEDB peptide-MHC binding, purified MHC/competitive/fluorescence; filed as Kd, often an IC50 or EC50 that approximates it; ≥ and ≤ were set here for values at or beyond the usual limits of such assays; conditions: source organism: Human immunodeficiency virus 1
HLA-A*02:03 = assay: as above; conditions: source organism: Human immunodeficiency virus 1
HLA-A*26:01 [2] = assay: as above
HLA-B*39:01 [3] = assay: as above
HLA-A*69:01 [4] = assay: as above; conditions: source organism: Mus musculus
HLA-B*27:03 = assay: as above
HLA-B*57:01 [5] = assay: as above
HLA-B*46:01 [6] = assay: as above
HLA-B*51:01 = assay: as above
HLA-A*02:01 [7] = assay: as above
HLA-B*18:01 [8] = assay: as above
HLA-C*08:02 = assay: IEDB peptide-MHC binding, purified MHC/direct/fluorescence; filed as Kd, often an IC50 or EC50 that approximates it; ≥ and ≤ were set here for values at or beyond the usual limits of such assays
HLA-A*02:01 [9] = assay: IEDB peptide-MHC binding, purified MHC/competitive/radioactivity; ≥ and ≤ were set here for values at or beyond the usual limits of such assays
HLA-B*15:17 [10] = assay: IEDB peptide-MHC binding, purified MHC/competitive/fluorescence; filed as Kd, often an IC50 or EC50 that approximates it; ≥ and ≤ were set here for values at or beyond the usual limits of such assays; conditions: source organism: Homo sapiens
HLA-B*15:01 [11] = assay: as above; conditions: source organism: Homo sapiens
HLA-A*01:01 = assay: IEDB peptide-MHC binding, purified MHC/direct/fluorescence; filed as Kd, often an IC50 or EC50 that approximates it; ≥ and ≤ were set here for values at or beyond the usual limits of such assays
HLA-A*26:01 [12] = assay: as above
HLA-B*15:09 = assay: as above
HLA-B*15:17 [13] = assay: as above; conditions: source organism: Burkholderia mallei
HLA-B*27:05 = assay: as above
HLA-B*44:02 = assay: as above
HLA-B*58:01 = assay: as above
HLA-A*31:01 = assay: as above; conditions: source organism: Burkholderia mallei
HLA-B*39:01 [14] = assay: as above; conditions: source organism: Burkholderia mallei ATCC 23344
HLA-A*03:01 = assay: as above
HLA-A*69:01 [15] = assay: as above
HLA-B*07:02 = assay: as above
HLA-B*48:01 = assay: as above; conditions: source organism: Burkholderia mallei
HLA-A*68:02 [16] = assay: as above; conditions: source organism: Burkholderia mallei
HLA-B*57:01 [17] = assay: as above; conditions: source organism: Burkholderia mallei
HLA-B*40:01 = assay: as above
HLA-B*08:01 = assay: as above
HLA-A*11:01 = assay: as above; conditions: source organism: Burkholderia mallei
HLA-A*02:01 [18] = assay: as above
HLA-B*15:01 [19] = assay: as above
HLA-B*18:01 [20] = assay: as above
HLA-A*26:02 = assay: as above; conditions: source organism: Influenza A virus(A/swine/Shandong/fZC/2003(H9N2))
HLA-A*24:02 = assay: as above; conditions: source organism: Influenza A virus (A/quail/Hong Kong/FY298/00(H9N2))
HLA-B*46:01 [21] = assay: as above; conditions: source organism: Influenza A virus (A/quail/Hong Kong/FY298/00(H9N2))
[22] = source organism: Burkholderia mallei ATCC 23344
[23] = source organism: Burkholderia mallei
[24] = source organism: Influenza A virus (A/quail/Hong Kong/FY298/00(H9N2))

Sequence: EELKSLYNTI
- Kd (HLA-A*68:02 [1]): 1.78 µM
- Kd (HLA-A*02:03): ≥ 20 µM

- Kd (HLA-A*26:01 [2]; source organism: Mus musculus): ≥ 20 µM
- Kd (HLA-B*39:01 [3]; source organism: Mus musculus): ≥ 20 µM
- Kd (HLA-A*69:01 [4]): ≥ 20 µM
- Kd (HLA-B*27:03; source organism: Mus musculus): ≥ 20 µM
- Kd (HLA-B*57:01 [5]; source organism: Mus musculus): ≥ 20 µM
- Kd (HLA-B*46:01 [6]; source organism: Mus musculus): ≥ 20 µM
- Kd (HLA-B*51:01; source organism: Mus musculus): ≥ 20 µM
- Kd (HLA-A*02:01 [7]; source organism: Mus musculus): ≥ 20 µM
- Kd (HLA-B*18:01 [8]; source organism: Mus musculus): ≥ 20 µM
- Kd (HLA-C*08:02; source organism: Mus musculus): ≥ 20 µM
Sequence: LVDENQSWY

Sequence: SLSHYFTLV
- IC50 (HLA-A*02:01 [9]; source organism: Trypanosoma cruzi): 0.0016 µM

- Kd (HLA-A*26:01 [2]; source organism: Homo sapiens): ≥ 20 µM
- Kd (HLA-B*15:17 [10]): ≥ 20 µM
- Kd (HLA-B*39:01 [3]; source organism: Homo sapiens): ≥ 20 µM
- Kd (HLA-B*27:03; source organism: Homo sapiens): ≥ 20 µM
- Kd (HLA-B*57:01 [5]; source organism: Homo sapiens): ≥ 20 µM
- Kd (HLA-B*46:01 [6]; source organism: Homo sapiens): ≥ 20 µM
- Kd (HLA-B*51:01; source organism: Homo sapiens): ≥ 20 µM
- Kd (HLA-A*02:01 [7]; source organism: Homo sapiens): ≥ 20 µM
- Kd (HLA-B*15:01 [11]): ≥ 20 µM
- Kd (HLA-B*18:01 [8]; source organism: Homo sapiens): ≥ 20 µM
- Kd (HLA-C*08:02; source organism: Homo sapiens): 0.254 µM
- Kd (HLA-A*01:01; source organism: Homo sapiens): 0.002 µM
Sequence: WTDLFDNKV

Sequence: IMDKNIIL
- IC50 (HLA-A*02:01 [9]; source organism: Influenza A virus (A/Puerto Rico/8/1934(H1N1))): 21 µM

- IC50 (HLA-A*02:01 [9]; source organism: Homo sapiens): 1.98 µM
Sequence: RLPRIFCSC

Sequence: FEIGNGDAG
- Kd (HLA-A*26:01 [12]; [22]): ≥ 20 µM
- Kd (HLA-B*15:09; [22]): ≥ 20 µM
- Kd (HLA-B*15:17 [13]): ≥ 20 µM
- Kd (HLA-B*27:05; [23]): ≥ 20 µM
- Kd (HLA-B*44:02; [23]): ≥ 20 µM
- Kd (HLA-B*58:01; [23]): ≥ 20 µM
- Kd (HLA-A*31:01): ≥ 20 µM
- Kd (HLA-B*39:01 [14]): ≥ 20 µM
- Kd (HLA-A*03:01; [23]): ≥ 20 µM
- Kd (HLA-A*69:01 [15]; [23]): ≥ 20 µM
- Kd (HLA-B*07:02; [23]): ≥ 20 µM
- Kd (HLA-B*48:01): ≥ 20 µM
- Kd (HLA-A*68:02 [16]): ≥ 20 µM
- Kd (HLA-B*57:01 [17]): ≥ 20 µM
- Kd (HLA-A*01:01; [23]): ≥ 20 µM
- Kd (HLA-B*40:01; [23]): ≥ 20 µM
- Kd (HLA-B*08:01; [22]): ≥ 20 µM
- Kd (HLA-A*11:01): ≥ 20 µM
- Kd (HLA-A*02:01 [18]; [23]): ≥ 20 µM
- Kd (HLA-B*15:01 [19]; [23]): ≥ 20 µM
- Kd (HLA-B*18:01 [20]; [23]): ≥ 20 µM

- IC50 (HLA-A*02:01 [9]; source organism: Homo sapiens): 0.192 µM
Sequence: ILCGTCLIV

Sequence: TTAKAMEQM
- Kd (HLA-A*26:02): 0.002 µM
- Kd (HLA-A*26:01 [12]; source organism: Influenza A virus (A/shorebird/Delaware Bay/277/2000(H9N7))): 0.0489 µM

Sequence: ALTLNTMTK
- Kd (HLA-B*15:09; source organism: Influenza A virus(A/swine/Henan/5/2004(H9N2))): ≥ 20 µM
- Kd (HLA-A*24:02): ≥ 20 µM
- Kd (HLA-B*27:05; [24]): ≥ 20 µM
- Kd (HLA-B*44:02; [24]): ≥ 20 µM
- Kd (HLA-B*58:01; [24]): ≥ 20 µM
- Kd (HLA-A*03:01; source organism: Influenza A virus (A/Puerto Rico/8/34/Mount Sinai(H1N1))): 0.724 µM
- Kd (HLA-A*69:01 [15]; [24]): ≥ 20 µM
- Kd (HLA-B*07:02; [24]): ≥ 20 µM
- Kd (HLA-B*46:01 [21]): ≥ 20 µM
- Kd (HLA-A*01:01; [24]): ≥ 20 µM
- Kd (HLA-B*40:01; [24]): ≥ 20 µM
- Kd (HLA-B*08:01; [24]): ≥ 20 µM
- Kd (HLA-A*02:01 [18]; [24]): ≥ 20 µM
- Kd (HLA-B*15:01 [19]; [24]): ≥ 20 µM
- Kd (HLA-B*18:01 [20]; [24]): ≥ 20 µM
